In patent US20240309103A1:

Experiments:
[1] = molecular target: human NPR1 on HEK293/hNPR1.myc.DDK cells (0 hANP) (human) (UniProt P16066); assay: cell-based or functional assay
mfNPR1-mFc (monkey) [2] = assay: SPR, mAb captured, 37C
[3] = molecular target: hNPR1-mFc:hBNP complex (human) (UniProt P16860); assay: SPR, mAb captured, 37C
[4] = molecular target: hNPR1-mFc:hANP or hNPR1-hFc:hANP complex (human) (UniProt P01160); assay: SPR, mAb captured, 37C
[5] = molecular target: mfNPR1-mFc:hANP complex (monkey; human) (UniProt P01160); assay: SPR, mAb captured, 37C
[6] = molecular target: mNPR1-mFc:hBNP complex (mouse; human) (UniProt P16860); assay: SPR Biacore, mAb captured by anti-human Fc, 37C
[7] = molecular target: mfNPR1-mFc:hBNP complex (monkey; human) (UniProt P16860); assay: SPR Biacore, mAb captured by anti-human Fc, 37C
[8] = molecular target: mNPR1-mFc:hANP complex (mouse; human) (UniProt P01160); assay: SPR Biacore, mAb captured by anti-human Fc, 37C
mNPR1-mFc (mouse) [9] = assay: SPR Biacore, mAb captured by anti-human Fc, 37C
[10] = molecular target: human NPR1 on HEK293/hNPR1.myc.DDK cells (0 hANP) (human) (UniProt P16066); assay: ECL cell binding (MSD), 0 hANP
[11] = molecular target: mfNPR1-mFc:hBNP complex (monkey; human) (UniProt P16860); assay: SPR, mAb captured, 25C
mfNPR1-mFc (monkey) [12] = assay: SPR, mAb captured, 25C
[13] = molecular target: hNPR1-mFc:hBNP complex (human) (UniProt P16860); assay: SPR, mAb captured, 25C
[14] = molecular target: hNPR1-mFc:hANP or hNPR1-hFc:hANP complex (human) (UniProt P01160); assay: SPR, mAb captured, 25C
[15] = molecular target: mfNPR1-mFc:hANP complex (monkey; human) (UniProt P01160); assay: SPR, mAb captured, 25C
[16] = molecular target: mNPR1-mFc:hBNP complex (mouse; human) (UniProt P16860); assay: SPR Biacore, mAb captured by anti-human Fc, 25C
[17] = molecular target: mNPR1-mFc:hANP complex (mouse; human) (UniProt P01160); assay: SPR Biacore, mAb captured by anti-human Fc, 25C
mNPR1-mFc (mouse) [18] = assay: SPR Biacore, mAb captured by anti-human Fc, 25C

Sequence of human NPR1 on HEK293/hNPR1.myc.DDK cells (0 hANP) (human) (P16066 33-1061): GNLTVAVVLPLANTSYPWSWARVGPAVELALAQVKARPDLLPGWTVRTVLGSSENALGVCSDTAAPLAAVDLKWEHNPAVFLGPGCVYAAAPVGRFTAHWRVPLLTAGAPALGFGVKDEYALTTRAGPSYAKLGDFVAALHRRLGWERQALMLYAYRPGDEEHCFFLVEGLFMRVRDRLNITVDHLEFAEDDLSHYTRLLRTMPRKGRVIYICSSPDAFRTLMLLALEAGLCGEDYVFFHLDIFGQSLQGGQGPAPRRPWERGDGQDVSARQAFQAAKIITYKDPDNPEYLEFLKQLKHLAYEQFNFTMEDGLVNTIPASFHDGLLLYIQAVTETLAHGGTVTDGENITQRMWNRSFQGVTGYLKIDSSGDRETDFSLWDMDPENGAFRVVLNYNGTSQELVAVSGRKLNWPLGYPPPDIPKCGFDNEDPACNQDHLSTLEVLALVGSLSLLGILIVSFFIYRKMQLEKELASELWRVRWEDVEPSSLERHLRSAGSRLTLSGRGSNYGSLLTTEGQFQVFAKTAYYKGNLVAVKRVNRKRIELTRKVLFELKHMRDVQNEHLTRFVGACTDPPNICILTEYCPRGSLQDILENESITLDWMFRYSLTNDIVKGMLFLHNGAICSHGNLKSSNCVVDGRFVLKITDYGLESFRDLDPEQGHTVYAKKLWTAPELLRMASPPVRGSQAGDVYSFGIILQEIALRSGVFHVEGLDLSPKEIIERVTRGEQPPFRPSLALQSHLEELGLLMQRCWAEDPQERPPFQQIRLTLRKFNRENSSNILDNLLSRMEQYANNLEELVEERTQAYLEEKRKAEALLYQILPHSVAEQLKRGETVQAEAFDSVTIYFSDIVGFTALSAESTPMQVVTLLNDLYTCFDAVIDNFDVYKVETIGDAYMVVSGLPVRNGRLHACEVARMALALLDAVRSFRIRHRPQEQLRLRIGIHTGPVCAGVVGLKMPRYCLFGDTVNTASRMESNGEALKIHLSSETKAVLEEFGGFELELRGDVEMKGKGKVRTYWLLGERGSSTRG
Sequence of mNPR1-mFc (mouse) (chain, as listed by the source limits assumed): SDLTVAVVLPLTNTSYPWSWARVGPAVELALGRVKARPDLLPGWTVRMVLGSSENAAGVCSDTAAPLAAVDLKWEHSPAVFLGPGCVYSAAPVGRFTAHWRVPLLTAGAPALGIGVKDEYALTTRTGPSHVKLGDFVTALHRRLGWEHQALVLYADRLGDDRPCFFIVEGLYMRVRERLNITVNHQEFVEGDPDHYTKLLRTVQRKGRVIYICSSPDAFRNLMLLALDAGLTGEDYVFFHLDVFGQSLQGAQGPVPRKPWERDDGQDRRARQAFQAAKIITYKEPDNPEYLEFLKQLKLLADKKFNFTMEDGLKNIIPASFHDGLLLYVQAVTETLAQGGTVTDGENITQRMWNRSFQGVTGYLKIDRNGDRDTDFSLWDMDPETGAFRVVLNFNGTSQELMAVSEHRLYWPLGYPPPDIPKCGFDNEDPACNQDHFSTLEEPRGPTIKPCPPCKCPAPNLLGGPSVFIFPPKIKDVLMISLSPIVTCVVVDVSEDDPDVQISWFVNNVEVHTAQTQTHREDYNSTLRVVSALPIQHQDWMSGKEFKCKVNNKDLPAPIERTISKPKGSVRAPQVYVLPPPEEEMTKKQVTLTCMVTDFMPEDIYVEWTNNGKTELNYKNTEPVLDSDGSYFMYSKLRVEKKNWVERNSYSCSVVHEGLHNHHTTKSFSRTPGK
Sequence of mfNPR1-mFc (monkey) (chain, as listed by the source limits assumed): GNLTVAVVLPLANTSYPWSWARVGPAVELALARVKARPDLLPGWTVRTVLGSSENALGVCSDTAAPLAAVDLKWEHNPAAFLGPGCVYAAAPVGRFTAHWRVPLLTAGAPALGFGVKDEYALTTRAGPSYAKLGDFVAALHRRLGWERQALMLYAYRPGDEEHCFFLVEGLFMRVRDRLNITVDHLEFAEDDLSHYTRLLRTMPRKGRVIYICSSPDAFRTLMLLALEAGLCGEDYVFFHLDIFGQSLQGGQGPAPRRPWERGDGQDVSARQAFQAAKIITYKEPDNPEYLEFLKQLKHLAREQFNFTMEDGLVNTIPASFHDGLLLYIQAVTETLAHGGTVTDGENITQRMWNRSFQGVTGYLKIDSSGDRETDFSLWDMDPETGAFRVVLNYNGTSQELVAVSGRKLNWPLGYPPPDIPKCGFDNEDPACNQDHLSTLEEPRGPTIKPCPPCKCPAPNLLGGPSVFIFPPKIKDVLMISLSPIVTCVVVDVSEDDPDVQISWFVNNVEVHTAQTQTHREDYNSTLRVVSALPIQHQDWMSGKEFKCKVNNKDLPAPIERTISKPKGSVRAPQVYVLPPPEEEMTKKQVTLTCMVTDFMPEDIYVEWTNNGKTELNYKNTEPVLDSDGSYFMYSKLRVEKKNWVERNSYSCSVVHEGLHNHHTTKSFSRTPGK

| EC50 (pM), ligand ANP, calcium flux activation, Expt II [1] [pM] | 100 nM Ag Bound (RU) (mfNPR1-mFc (monkey) [2]) | 100 nM Ag Bound (RU) [3] [RU] | 100 nM Ag Bound (RU) [4] [RU] | 100 nM Ag Bound (RU) [5] [RU] | 100 nM Ag Bound (RU) [6] [RU] | 100 nM Ag Bound (RU) [7] [RU] | 100 nM Ag Bound (RU) [8] [RU] | 100 nM Ag Bound (RU) (mNPR1-mFc (mouse) [9]) | % Activation (vs ANP max), Expt 1 [1] [%] | % Activation (vs. ANP max), Expt II [1] [%] | Ratio at 3.7 nM Ab concentration of Cell Binding Signal (RLU) to HEK293/hNPR1.myc.DKK relative to parental HEK293 [10] | 100 nM Ag Bound (RU) [11] [RU] | 100 nM Ag Bound (RU) (mfNPR1-mFc (monkey) [12]) | 100 nM Ag Bound (RU) [13] [RU] | 100 nM Ag Bound (RU) [14] [RU] | 100 nM Ag Bound (RU) [15] [RU] | 100 nM Ag Bound (RU) [16] [RU] | 100 nM Ag Bound (RU) [17] [RU] | 100 nM Ag Bound (RU) (mNPR1-mFc (mouse) [18]) | Substance |
| --- | --- | --- | --- | --- | --- | --- | --- | --- | --- | --- | --- | --- | --- | --- | --- | --- | --- | --- | --- | --- |
| 78.8 | – | – | – | – | – | – | – | – | – | – | – | – | – | – | – | – | – | – | – | ANP (from UniProt P01160 124-151) (ligand) |
| – | 8 | -17 | -18 | 9 | 3 | 9 | 2 | 2 | -6.03 | 1.9 | 1 | 7 | 5 | -11 | -12 | 7 | 2 | 1 | 0 | IgG4 Isotype Control (antibody) |
